Results reported in IntAct's records for PubMed 17442384.

B1: Suppressor protein STP22 of temperature-sensitive alpha-factor receptor and arginine permease (Saccharomyces cerevisiae), P25604 (parent)
chain: MSANGKISVPEAVVNWLFKVIQPIYNDGRTTFHDSLALLDNFHSLRPRTRVFTHSDGTPQLLLSIYGTISTGEDGSSPHSIPVIMWVPSMYPVKPPFISINLENFDMNTISSSLPIQEYIDSNGWIALPILHCWDPAAMNLIMVVQELMSLLHEPPQDQAPSLPPKPNTQLQQEQNTPPLPPKPKSPHLKPPLPPPPPPQPASNALDLMDMDNTDISPTNHHEMLQNLQTVVNELYREDVDYVADKILTRQTVMQESIARFHEIIAIDKNHLRAVEQAIEQTMHSLNAQIDVLTANRAKVQQFSSTSHVDDEDVNSIAVAKTDGLNQLYNLVAQDYALTDTIECLSRMLHRGTIPLDTFVKQGRELARQQFLVRWHIQRITSPLS
partner: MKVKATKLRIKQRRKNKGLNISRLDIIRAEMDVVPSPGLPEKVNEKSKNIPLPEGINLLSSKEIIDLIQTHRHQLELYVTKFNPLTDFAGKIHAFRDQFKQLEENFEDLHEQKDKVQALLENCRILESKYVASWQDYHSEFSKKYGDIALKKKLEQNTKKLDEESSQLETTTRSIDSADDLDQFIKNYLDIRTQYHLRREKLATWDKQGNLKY
B2: Suppressor protein STP22 of temperature-sensitive alpha-factor receptor and arginine permease (Saccharomyces cerevisiae), P25604 (parent)
chain: B1 chain
partner: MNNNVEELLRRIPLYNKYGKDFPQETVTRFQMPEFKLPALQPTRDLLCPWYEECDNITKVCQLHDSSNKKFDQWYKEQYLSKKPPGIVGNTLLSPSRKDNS
B3: Multivesicular body sorting factor 12 (Saccharomyces cerevisiae), P42939 (parent)
chain: B2 partner
partner: B1 chain
B4: Multivesicular body sorting factor 12 (Saccharomyces cerevisiae), P42939 (parent)
chain: B2 partner
partner: B1 partner

Variants of: B1
Settings: with srn2_yeast SRN2, Q99176

| effect of a mutation on the interaction | Variant |
| --- | --- |
| decreasing interaction | M254D |

Variants of: B2
Settings: with mvb12_yeast MVB12, P42939

| effect of a mutation on the interaction | Variant |
| --- | --- |
| decreasing interaction | M254D |

Variants of: B3
Settings: with stp22_yeast STP22, P25604

| effect of a mutation on the interaction | Variant |
| --- | --- |
| decreasing interaction | L47D;I57D |

Variants of: B4
Settings: with srn2_yeast SRN2, Q99176

| effect of a mutation on the interaction | Variant |
| --- | --- |
| decreasing interaction | L47D;I57D |
